Experimental findings from patent publication US20130137856A1, “PROTEIN BINDING DOMAINS STABILIZING FUNCTIONAL CONFORMATIONAL STATES OF GPCRS AND USES THEREOF” (priority 2010, published 2013) are described below.

In this assay the target is β2AR truncated after amino acid 365 (β2AR-365) having an amino terminal Flag epitope tag, native, agonist-bound or unliganded (human) (UniProt P07550). Description: cell-based or functional assay.

With Gs heterotrimer, the High affinity state Ki of (-)-isoproterenol, [3H]-DHA competition binding, β2AR in HDL particles + Gs (β2AR alone: 107.5) came to 1.07 nM and the fold increase of the affinity of isoproterenol amounted to 100 fold.
